Patent publication US20090031441A1 (NATIONAL UNIVERSITY CORPORATION NAGOYA UNIVERSITY, published 2009)
One block for each binder: values may come before it.

What was measured:
[1] = target: T1, GAI (Arabidopsis DELLA protein), yeast two-hybrid prey in pGADT7 AD vector (Arabidopsis, UniProt Q9LQT8 1-533); test: yeast two-hybrid without GA (FIG. 11); member GAI named in the legend of FIG. 11
T1 construct: also called AtDELLA
T1 sequence (looked up): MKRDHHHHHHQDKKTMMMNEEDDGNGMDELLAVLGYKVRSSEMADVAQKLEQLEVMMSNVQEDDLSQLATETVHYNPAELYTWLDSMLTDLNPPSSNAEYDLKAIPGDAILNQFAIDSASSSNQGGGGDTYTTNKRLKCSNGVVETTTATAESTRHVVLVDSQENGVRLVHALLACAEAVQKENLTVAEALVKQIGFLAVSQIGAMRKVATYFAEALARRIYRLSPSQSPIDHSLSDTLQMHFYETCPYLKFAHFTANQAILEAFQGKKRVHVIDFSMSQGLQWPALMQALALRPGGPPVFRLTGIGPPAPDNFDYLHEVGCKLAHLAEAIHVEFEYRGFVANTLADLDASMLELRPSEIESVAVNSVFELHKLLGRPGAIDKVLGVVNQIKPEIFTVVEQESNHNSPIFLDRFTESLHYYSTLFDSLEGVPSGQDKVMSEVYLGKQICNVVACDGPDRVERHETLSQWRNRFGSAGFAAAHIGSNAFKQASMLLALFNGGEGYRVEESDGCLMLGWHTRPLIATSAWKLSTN
Protocol: (§1) Arabidopsis has five DELLA proteins (RGA, GAI, RGL1, RGL2, and RGL3; collectively designated AtDELLA; Fleet, C. M., and Sun, T.-P. (2005) Curr. Opin. Plant Biol., 8, 77-85; Dill, A., and Sun, T. (2001) Genetics, 159, 777-785); therefore, there are 15 possible combinations of GID1/DELLA proteins. To verify the positive interactions between AtGID1-AtDELLA, two experiments were conducted using the yeast two hybrid (Y2H) system. In the first experiment (Assay A), a viable colony assay using a defined medium in which only positive clones would survive was carried out. In the second experiment (Assay B), β-galactosidase activity was measured, as reporter gene product of AtGID1-AtDELLA interactions.
BD Matchmaker Two-hybrid System 3 (Clontech, Palo Alto, Calif., USA; now part of Takara Bio) was used in the Y2H experiments. After confirming the PCR products of the AtGID1 genes by sequencing, PCR products were cloned into pGBKT7 DNA-BD shuttle vector to construct bait plasmids. […]
Thus, GA₄ (10⁻⁵ M) was used and added to the medium. […] As described above, all AtGID1-AtDELLA interactions were detected in a GA-dependent manner; however, interactions between AtGID1b and some AtDELLAs were detected, albeit weakly, in the absence of GA (FIG. 11).

[2] = target: T2, RGL1 (Arabidopsis DELLA protein), yeast two-hybrid prey in pGADT7 AD vector (Arabidopsis, UniProt Q9C8Y3 1-511); test: yeast two-hybrid system
T2 construct: also called AtDELLA
T2 sequence (looked up): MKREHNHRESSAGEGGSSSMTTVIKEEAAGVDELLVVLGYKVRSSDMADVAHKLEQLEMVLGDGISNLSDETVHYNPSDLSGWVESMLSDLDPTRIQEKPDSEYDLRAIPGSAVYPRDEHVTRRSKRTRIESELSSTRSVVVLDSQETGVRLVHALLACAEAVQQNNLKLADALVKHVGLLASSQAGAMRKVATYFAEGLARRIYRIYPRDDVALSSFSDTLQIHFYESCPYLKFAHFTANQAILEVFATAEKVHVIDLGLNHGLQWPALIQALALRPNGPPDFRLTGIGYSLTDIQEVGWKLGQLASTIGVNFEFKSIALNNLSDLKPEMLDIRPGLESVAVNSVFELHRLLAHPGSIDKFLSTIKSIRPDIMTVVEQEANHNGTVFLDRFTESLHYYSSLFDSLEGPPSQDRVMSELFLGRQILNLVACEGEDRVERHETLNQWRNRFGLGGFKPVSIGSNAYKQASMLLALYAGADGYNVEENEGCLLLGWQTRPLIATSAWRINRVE
Protocol: as §1
(§2) BD Matchmaker Two-hybrid System 3 (Clontech, Palo Alto, Calif., USA; now part of Takara Bio) was used in the Y2H experiments. After confirming the PCR products of the AtGID1 genes by sequencing, PCR products were cloned into pGBKT7 DNA-BD shuttle vector to construct bait plasmids. Likewise, the entire coding region of each AtDELLA gene (GAI including EcoRI and XhoI sites; RGA including BamHI and XhoI sites; RGL1 including SmaI and SacI sites; RGL2 including SmaI and ClaI sites; RGL3 including SmaI and XhoI sites on the ends) was cloned into pGADT7 AD vector. The S. cerevisiae AH109 (MATa) strain or Y187 (MATα) strain was used, and DNA-BD and AD vector cassettes were used as negative controls. The details of the method used for the yeast assay are as described in the manufacturer's instructions (Yeast Protocols Handbook #PT3024-1; http://www.clontech.com/). Experiments were carried out four times independently. Similar results were obtained each time.

[3] = target: T3, RGL3 (Arabidopsis DELLA protein), yeast two-hybrid prey in pGADT7 AD vector (Arabidopsis, UniProt Q9LF53 1-523); test: yeast two-hybrid system
T3 construct: also called AtDELLA
T3 sequence (looked up): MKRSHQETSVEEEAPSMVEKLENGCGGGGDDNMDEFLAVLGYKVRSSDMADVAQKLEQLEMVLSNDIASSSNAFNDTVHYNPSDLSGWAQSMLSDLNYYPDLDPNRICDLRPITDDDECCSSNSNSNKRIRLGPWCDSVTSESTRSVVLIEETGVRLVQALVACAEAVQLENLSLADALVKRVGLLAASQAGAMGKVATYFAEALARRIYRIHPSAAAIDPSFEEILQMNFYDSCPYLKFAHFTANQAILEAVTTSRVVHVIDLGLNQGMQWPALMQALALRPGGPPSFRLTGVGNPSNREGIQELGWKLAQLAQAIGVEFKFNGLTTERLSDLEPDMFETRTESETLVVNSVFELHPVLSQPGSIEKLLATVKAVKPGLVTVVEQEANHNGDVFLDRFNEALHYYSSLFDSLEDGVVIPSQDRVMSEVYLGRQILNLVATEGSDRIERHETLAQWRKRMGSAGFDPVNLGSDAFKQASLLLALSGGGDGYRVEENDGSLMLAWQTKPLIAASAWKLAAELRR
Protocol: as §1, §2

binding result [1]: binds
B1: AtGID1b (At3g63010), yeast two-hybrid bait in pGBKT7 DNA-BD vector (receptor, not shown: small tags and cut ends)
chain: MAGGNEVNLNECKRIVPLNTWVLISNFKLAYKVLRRPDGSFNRDLAEFLDRKVPANSFPLDGVFSFDHVDSTTNLLTRIYQPASLLHQTRHGTLELTKPLSTTEIVPVLIFFHGGSFTHSSANSAIYDTFCRRLVTICGVVVVSVDYRRSPEHRYPCAYDDGWNALNWVKSRVWLQSGKDSNVYVYLAGDSSGGNIAHNVAVRATNEGVKVLGNILLHPMFGGQERTQSEKTLDGKYFVTIQDRDWYWRAYLPEGEDRDHPACNPFGPRGQSLKGVNFPKSLVVVAGLDLVQDWQLAYVDGLKKTGLEVNLLYLKQATIGFYFLPNNDHFHCLMEELNKFVHSIEDSQSKSSPVLLTP
notes: Bait fusion for the Y2H assays; also called Arabidopsis GID1

binding result [2]: binds | binding result [3]: binds
B2: AtGID1a (At3g05120), yeast two-hybrid bait in pGBKT7 DNA-BD vector (receptor, not shown: small tags and cut ends)
chain: MAASDEVNLIESRTVVPLNTWVLISNFKVAYNILRRPDGTFNRHLAEYLDRKVTANANPVDGVFSFDVLIDRRINLLSRVYRPAYADQEQPPSILDLEKPVDGDIVPVILFFHGGSFAHSSANSAIYDTLCRRLVGLCKCVVVSVNYRRAPENPYPCAYDDGWIALNWVNSRSWLKSKKDSKVHIFLAGDSSGGNIAHNVALRAGESGIDVLGNILLNPMFGGNERTESEKSLDGKYFVTVRDRDWYWKAFLPEGEDREHPACNPFSPRGKSLEGVSFPKSLVVVAGLDLIRDWQLAYAEGLKKAGQEVKLMHLEKATVGFYLLPNNNHFHNVMDEISAFVNAEC
notes: Bait fusion for the Y2H assays (BD Matchmaker Two-hybrid System 3); also called Arabidopsis GID1
